The test addresses SARS-CoV spike prefusion stabilized ectodomain trimer (SARS-CoV) (UniProt P59594). Nature of the test: cryo-EM structure.

Substance 47D11 Fab fragment displayed a stoichiometry N (Fab per spike trimer) of 3.

The record behind these values is article PMC8172134.
